Assay results taken from patent US20230340151A1 (Pfizer, published 2023).

Key:
Assay in all cases: flow cytometry on cells displaying the construct
[1] = biological target: T1, CID1939 (reverse chimera, chicken GUCY2c with human residues) (chicken/human)
T1 chain: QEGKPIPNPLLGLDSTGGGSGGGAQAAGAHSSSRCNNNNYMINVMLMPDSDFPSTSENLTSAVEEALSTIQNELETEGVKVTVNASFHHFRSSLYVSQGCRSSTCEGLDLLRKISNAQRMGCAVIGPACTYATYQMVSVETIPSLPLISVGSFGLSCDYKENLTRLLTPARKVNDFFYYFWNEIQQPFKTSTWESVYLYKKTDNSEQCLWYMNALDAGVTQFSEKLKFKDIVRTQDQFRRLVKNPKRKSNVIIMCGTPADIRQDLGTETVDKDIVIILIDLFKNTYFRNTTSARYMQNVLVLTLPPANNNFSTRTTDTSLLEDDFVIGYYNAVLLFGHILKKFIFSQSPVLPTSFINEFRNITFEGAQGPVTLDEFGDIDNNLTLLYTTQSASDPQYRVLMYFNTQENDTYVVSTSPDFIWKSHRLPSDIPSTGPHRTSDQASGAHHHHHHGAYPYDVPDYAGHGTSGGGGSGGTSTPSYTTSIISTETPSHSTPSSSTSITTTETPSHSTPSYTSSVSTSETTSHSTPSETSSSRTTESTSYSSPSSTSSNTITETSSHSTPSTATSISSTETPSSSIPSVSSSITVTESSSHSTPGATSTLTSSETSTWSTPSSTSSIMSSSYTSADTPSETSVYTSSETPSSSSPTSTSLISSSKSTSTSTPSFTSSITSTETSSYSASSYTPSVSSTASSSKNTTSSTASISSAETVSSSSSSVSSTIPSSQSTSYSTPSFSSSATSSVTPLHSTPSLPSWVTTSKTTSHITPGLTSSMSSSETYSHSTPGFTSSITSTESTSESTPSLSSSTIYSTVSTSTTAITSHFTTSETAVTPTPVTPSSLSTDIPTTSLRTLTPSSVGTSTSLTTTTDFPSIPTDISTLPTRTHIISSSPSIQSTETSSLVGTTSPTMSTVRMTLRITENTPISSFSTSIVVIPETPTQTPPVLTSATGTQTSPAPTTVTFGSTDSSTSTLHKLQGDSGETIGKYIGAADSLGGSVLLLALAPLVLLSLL

[2] = biological target: CID1947 (human GUCY2c point mutant) (human)
[3] = biological target: T2, CID1875 (human-chicken GUCY2c chimera) (human/chicken)
T2 chain: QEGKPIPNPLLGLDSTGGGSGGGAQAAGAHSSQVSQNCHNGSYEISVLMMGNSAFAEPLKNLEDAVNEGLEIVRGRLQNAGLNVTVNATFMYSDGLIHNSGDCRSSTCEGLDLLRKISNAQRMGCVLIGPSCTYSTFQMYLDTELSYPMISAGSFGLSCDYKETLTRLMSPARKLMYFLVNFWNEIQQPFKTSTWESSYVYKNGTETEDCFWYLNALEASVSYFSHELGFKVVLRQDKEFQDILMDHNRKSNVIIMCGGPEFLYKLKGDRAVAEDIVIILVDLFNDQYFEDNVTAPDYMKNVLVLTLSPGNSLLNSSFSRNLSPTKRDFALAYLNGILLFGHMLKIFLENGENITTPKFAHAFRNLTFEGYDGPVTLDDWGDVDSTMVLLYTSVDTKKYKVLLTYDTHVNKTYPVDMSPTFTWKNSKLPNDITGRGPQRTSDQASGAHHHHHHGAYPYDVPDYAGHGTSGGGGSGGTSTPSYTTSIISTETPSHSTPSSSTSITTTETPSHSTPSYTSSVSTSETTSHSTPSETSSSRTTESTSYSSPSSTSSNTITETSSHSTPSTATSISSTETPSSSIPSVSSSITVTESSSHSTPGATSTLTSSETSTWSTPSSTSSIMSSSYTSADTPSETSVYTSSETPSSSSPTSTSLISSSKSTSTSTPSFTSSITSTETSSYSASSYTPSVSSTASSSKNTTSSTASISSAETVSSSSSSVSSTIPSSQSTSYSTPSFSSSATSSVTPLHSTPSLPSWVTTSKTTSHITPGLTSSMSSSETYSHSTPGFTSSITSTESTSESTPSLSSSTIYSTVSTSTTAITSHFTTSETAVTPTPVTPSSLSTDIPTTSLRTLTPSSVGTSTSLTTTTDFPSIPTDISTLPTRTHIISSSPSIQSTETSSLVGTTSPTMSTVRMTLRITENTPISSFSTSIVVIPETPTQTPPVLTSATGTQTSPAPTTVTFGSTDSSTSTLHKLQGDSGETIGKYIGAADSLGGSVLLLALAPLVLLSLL

[4] = biological target: CID1943 (human GUCY2c point mutant) (human)

Measured: binding result

B1: GUCY2C-1608 (bispecific antibody)
chain 1: DIQLTQSPSSLSASVGDRVTITCRASESVDYYGSSLLQWYQQKPGKAPKLLIYAASKLASGVPSRFSGSGSGTDFTLTISSLQPEDFATYYCQQTRKAYTFGQGTKLEIKGGGSGGGGEVQLVESGGGLVQPGGSLRLSCAASGFTFSDYYMTWVRQAPGKGLEWVAFIRNQARGYTSDHNPSVKGRFTISRDNAKNSLYLQMNSLRAEDTAVYYCARDRPSYYVLDYWGQGTTVTVSSGCPPCPAPEAAGAPSVFLFPPKPKDTLMISRTPEVTCVVVDVSHEDPEVKFNWYVDGVEVHNAKTKPREEQYNSTYRVVSVLTVLHQDWLNGKEYKCKVSNKALPAPIEKTISKAKGQPREPQVCTLPPSREEMTKNQVSLWCLVKGFYPSDIAVEWESNGQPENNYKTTPPVLDSDGSFFLYSKLTVDKSRWQQGNVFSCSVMHEALHNHYTQKSLSLSPG
chain 2: DIQMTQSPSSLSASVGDRVTITCTSSQSLFNVRSQKNYLAWYQQKPGKAPKLLIYWASTRESGVPSRFSGSGSGTDFTLTISSLQPEDFATYYCKQSYDLFTFGGGTKVEIKGGGGSGGGGEVQLVESGGGLVQPGGSLRLSCAASGFTFSSYWMHWVRQAPGKGLEWIGEIKPSNELTNVHEKFKDRFTISVDKAKNSAYLQMNSLRAEDTAVYYCTRTITTTEGYWFFDVWGQGTLVTVSSGCPPCPAPEAAGAPSVFLFPPKPKDTLMISRTPEVTCVVVDVSHEDPEVKFNWYVDGVEVHNAKTKPREEQYNSTYRVVSVLTVLHQDWLNGKEYKCKVSNKALPAPIEKTISKAKGQPREPQVYTLPPCREEMTKNQVSLSCAVKGFYPSDIAVEWESNGQPENNYKTTPPVLDSDGSFFLVSKLTVDKSRWQQGNVFSCSVMHEALHNHYTQKSLSLSPG
notes: also called GUCY2c CD3 bispecific
binds: [1] | [2] | [3] | [4]
